Test [1] concerns the target IL-17 receptor (receptor of the first BIACORE screen of Example 8; construct not stated) (Homo sapiens (Human)) (UniProt Q96F46). Nature of the test: BIACORE SPR; IL-17 at 25 ug/mL.
For test [2], the target named is T1, IL17RLP (Met-(-19) through Gly-270 of SEQ ID NO:2)-Fc fusion (human, UniProt Q9NRM6 18-289).
T1 construct: also called IL17RLP-Fc; soluble IL17RLP-Fc fusion protein; not shown: human Fc domain (heavy chain constant region of IgG1)
T1 sequence: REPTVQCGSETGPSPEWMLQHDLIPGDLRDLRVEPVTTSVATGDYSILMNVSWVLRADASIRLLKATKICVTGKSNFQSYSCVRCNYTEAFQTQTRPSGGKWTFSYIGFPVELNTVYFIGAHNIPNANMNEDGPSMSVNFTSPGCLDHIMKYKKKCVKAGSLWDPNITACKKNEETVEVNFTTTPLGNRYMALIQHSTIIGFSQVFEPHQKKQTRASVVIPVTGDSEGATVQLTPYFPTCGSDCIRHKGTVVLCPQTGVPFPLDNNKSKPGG
Nature of the test: BIACORE SPR (summary of Example 8). Here is the method: (§1) Binding Analyses—IL-20 protein was dialyzed against 10 mM sodium acetate buffer, pH 5 and a BIACORE™ flow cell was prepared for each receptor at densities of 7900 and 9600 RU for IL-17R and IL17RLP, respectively. Various concentrations of purified IL-20 and IL-17 (R&D Systems, Minneapolis, Minn.) in 50 microliters herpes-buffered saline (HBS) buffer were examined for receptor binding at a flow rate of 15 microliters per minute. After injection of sample the flow cell was equilibrated with HBS. Flow cells were regenerated using two 40 sec pulses of 10 mM HCl.
A general note: SPR reads the build-up and loss of mass on a sensor chip optically.

The target in test [3] is T2, IL-17 receptor (Met-1 through Asp-315)-Fc (human, UniProt Q96F46 33-315).
T2 construct: range 1-315; also called IL17R-Fc; huIL-17R extracellular domain-Fc; not shown: human Fc domain (heavy chain constant region of IgG1)
T2 sequence (Q96F46 33-315 limits assumed): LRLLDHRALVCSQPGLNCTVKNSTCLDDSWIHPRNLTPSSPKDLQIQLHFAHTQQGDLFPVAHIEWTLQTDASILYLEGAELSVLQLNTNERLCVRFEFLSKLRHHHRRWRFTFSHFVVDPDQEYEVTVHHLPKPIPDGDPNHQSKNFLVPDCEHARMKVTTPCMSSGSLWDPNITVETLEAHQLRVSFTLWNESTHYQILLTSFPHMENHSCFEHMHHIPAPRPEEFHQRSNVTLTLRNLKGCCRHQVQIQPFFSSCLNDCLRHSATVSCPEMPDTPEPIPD
Nature of the test: BIACORE SPR (summary of Example 8). Here is the method: as §1

The target in test [4] is IL-17 receptor (receptor of the first BIACORE screen of Example 8; construct not stated) (Homo sapiens (Human)) (UniProt Q96F46). Nature of the test: BIACORE SPR; conditioned CHO culture supernatant, IL-20 concentration estimated at ~25 ug/mL.

Values joined by “and” are separate entries in the source; they are usually repeats but may differ in a detail not shown here. Equal values may be shown once.

In the case of “Recombinant human IL-17 (R&D Systems) (from UniProt Q16552 20-155) (ligand)”, the SPR binding response (RU) in test [1] was 60 RU.

B1: recombinant human IL-20 expressed in CHO cells (purified protein or conditioned culture supernatant) (ligand)
chain: RSPKSKRKGQGRPGPLAPGPHQVPLDLVSRMKPYARMEEYERNIEEMVAQLRNSSELAQRKCEVNLQLWMSNKRSLSPWGYSINHDPSRIPVDLPEARCLCLGCVNPFTMQEDRSMVSVPVFSQVPVRRRLCPPPPRTGPCRQRAVMETIAVGCTCIF
notes: The complete ORF was expressed in CHO cells and the protein was secreted; The preparation is heterogeneous; Residues 23-180 is the longest species observed; GenBank AF212311 is printed; also called hIL-20; huIL-20
For B1, the binding result in test [2] and in test [3] was “binds” throughout. For the same molecule, in test [4], the SPR binding response (RU) was 115 RU and 65 RU.
